Measured values taken from paper doi:10.1101/2022.09.03.506465 (bioRxiv, 2022).

T1: TSEN54, subunit of full-length, catalytically inactive human TSEN (human, UniProt Q7Z6J9 1-526)
T1 sequence (looked up): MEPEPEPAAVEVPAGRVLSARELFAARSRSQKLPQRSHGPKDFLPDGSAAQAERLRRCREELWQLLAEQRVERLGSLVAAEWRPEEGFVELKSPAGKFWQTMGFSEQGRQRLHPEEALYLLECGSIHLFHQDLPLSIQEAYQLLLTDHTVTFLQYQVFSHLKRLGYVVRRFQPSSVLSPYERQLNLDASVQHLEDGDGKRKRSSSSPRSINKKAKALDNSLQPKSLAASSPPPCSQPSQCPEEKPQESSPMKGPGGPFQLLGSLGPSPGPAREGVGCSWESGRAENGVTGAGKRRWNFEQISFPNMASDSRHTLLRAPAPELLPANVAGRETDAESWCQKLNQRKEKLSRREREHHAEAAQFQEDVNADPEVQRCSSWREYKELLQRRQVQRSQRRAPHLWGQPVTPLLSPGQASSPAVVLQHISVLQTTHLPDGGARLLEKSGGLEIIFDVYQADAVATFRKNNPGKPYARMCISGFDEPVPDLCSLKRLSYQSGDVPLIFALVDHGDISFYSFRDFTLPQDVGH

B1: TSEN34^H255F, subunit of full-length, catalytically inactive human TSEN (natural protein, UniProt Q9BSV6 1-310, looked up)
chain: MLVVEVANGRSLVWGAEAVQALRERLGVGGRTVGALPRGPRQNSRLGLPLLLMPEEARLLAEIGAVTLVSAPRPDSRHHSLALTSFKRQQEESFQEQSALAAEARETRRQELLEKITEGQAAKKQKLEQASGASSSQEAGSSQAAKEDETSDGQASGEQEEAGPSSSQAGPSNGVAPLPRSALLVQLATARPRPVKARPLDWRVQSKDWPHAGRPAHELRYSIYRDLWERGFFLSAAGKFGGDFLVYPGDPLRFFAHYIAQCWAPEDTIPLQDLVAAGRLGTSVRKTLLLCSPQPDGKVVYTSLQWASLQ

Experiments:
[1] = target: T1, TSEN54, subunit of full-length, …; experiment: cryo-EM structure
[2] = target: B1; experiment: cryo-EM structure

| binding result [1] | binding result [2] | Binder |
| --- | --- | --- |
| binds |  | TSEN2^H377F, subunit of full-length, catalytically inactive human TSEN (natural protein, UniProt Q8NCE0 1-465, looked up) MAEAVFHAPKRKRRVYETYESPLPIPFGQDHGPLKEFKIFRAEMINNNVIVRNAEDIEQLYGKGYFGKGILSRSRPSFTISDPKLVAKWKDMKTNMPIITSKRYQHSVEWAAELMRRQGQDESTVRRILKDYTKPLEHPPVKRNEEAQVHDKLNSGMVSNMEGTAGGERPSVVNGDSGKSGGVGDPREPLGCLQEGSGCHPTTESFEKSVREDASPLPHVCCCKQDALILQRGLHHEDGSQHIGLLHPGDRGPDHEYVLVEEAECAMSEREAAPNEELVQRNRLICRRNPYRIFEYLQLSLEEAFFLVYALGCLSIYYEKEPLTIVKLWKAFTVVQPTFRTTYMAYHYFRSKGWVPKVGLKYGTDLLLYRKGPPFYFASYSVIIELVDDHFEGSLRRPLSWKSLAALSRVSVNVSKELMLCYLIKPSTMTDKEMESPECMKRIKVQEVILSRWVSSRERSDQDDL |
| binds |  | B1 |
|  | binds | TSEN15, subunit of full-length, catalytically inactive human TSEN (natural protein, UniProt Q8WW01 1-171, looked up) MEERGDSEPTPGCSGLGPGGVRGFGDGGGAPSWAPEDAWMGTHPKYLEMMELDIGDATQVYVAFLVYLDLMESKSWHEVNCVGLPELQLICLVGTEIEGEGLQTVVPTPITASLSHNRIREILKASRKLQGDPDLPMSFTLAIVESDSTIVYYKLTDGFMLPDPQNISLRR |
